Results: US20110263827A1 (AbbVie / Abbott, published 2011)

Assays:
HGF [1] = target: T1, HGF (UniProt P14210 32-728, limits assumed, biotinylated); experiment: direct bind ELISA, C-term VD;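 note: ELISA with antibody or DVD-Ig preparations applied to target antigen-coated plates for 1 h at room temperature, TMB colour development, absorbance read at 450 nm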
T1 construct: ELISA antigen

EGFR [2] = target: T2, EGFR (UniProt P00533 25-645, limits assumed, biotinylated); experiment: direct bind ELISA, N-term VD;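 note: antibody or DVD-Ig preparations bound to immobilized target antigen on ELISA plates, 1 h at room temperature, TMB detection read as absorbance at 450 nm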
T2 construct: ELISA antigen; construct not described

EGFR [3] = target: T2, EGFR; experiment: direct bind ELISA, C-term VD;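 note: ELISA with antibody or DVD-Ig preparations applied to target antigen-coated plates for 1 h at room temperature, TMB colour development, absorbance read at 450 nm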
HGF [4] = target: T1, HGF; experiment: direct bind ELISA, N-term VD;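 note: antibody or DVD-Ig preparations bound to immobilized target antigen on ELISA plates, 1 h at room temperature, TMB detection read as absorbance at 450 nm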

| Binder | EC50 (HGF [1]) | EC50 (EGFR [2]) | EC50 (EGFR [3]) | EC50 (HGF [4]) |
| --- | --- | --- | --- | --- |
| DVD807 (bispecific antibody, DVD-Ig; HC L, LC S; variable parts only) VH: QVQLQESGPGLVKPSQTLSLTCTVSGYSISSDFAWNWIRQPPGKGLEWMGYISYSGNTRYQPSLKSRITISRDTSKNQFFLKLNSVTAADTATYYCVTAGRGFPYWGQGTLVTVSSASTKGPSVFPLAPQVQLVESGGGLVKPGGSLRLSCAASGFTFSDYYMSWIRQAPGKGLEWVSYISSSGSTIYYADSVKGRFTISRDNAKNSLYLQMNSLRAEDTAVYYCARDEYNSGWYVLFDYWGQGTLVTVSS VL: DIQMTQSPSSMSVSVGDRVTITCHSSQDINSNIGWLQQKPGKSFKGLIYHGTNLDDGVPSRFSGSGSGTDYTLTISSLQPEDFATYYCVQYAQFPWTFGGGTKLEIKRTVAAPDIQMTQSPSSVSASVGDRVTITCRASQGISSWLAWYQQKPGKAPNLLIYEASSLQSGVPSRFGGSGSGTDFTLTISSLQPEDFATYYCQQANGFPWTFGQGTKVEIKR | 9.24 nM | 4.85 nM | – | – |
| DVD778 (bispecific antibody, DVD-Ig; HC L, LC L; variable parts only) VH: QVQLVESGGGLVKPGGSLRLSCAASGFTFSDYYMSWIRQAPGKGLEWVSYISSSGSTIYYADSVKGRFTISRDNAKNSLYLQMNSLRAEDTAVYYCARDEYNSGWYVLFDYWGQGTLVTVSSASTKGPSVFPLAPQVQLQESGPGLVKPSQTLSLTCTVSGYSISSDFAWNWIRQPPGKGLEWMGYISYSGNTRYQPSLKSRITISRDTSKNQFFLKLNSVTAADTATYYCVTAGRGFPYWGQGTLVTVSS VL: DIQMTQSPSSVSASVGDRVTITCRASQGISSWLAWYQQKPGKAPNLLIYEASSLQSGVPSRFGGSGSGTDFTLTISSLQPEDFATYYCQQANGFPWTFGQGTKVEIKRTVAAPSVFIFPPDIQMTQSPSSMSVSVGDRVTITCHSSQDINSNIGWLQQKPGKSFKGLIYHGTNLDDGVPSRFSGSGSGTDYTLTISSLQPEDFATYYCVQYAQFPWTFGGGTKLEIKR | – | – | 50.3 nM | 0.17 nM |
| DVD808 (bispecific antibody, DVD-Ig; HC L, LC S; variable parts only) VH: QVQLVESGGGLVKPGGSLRLSCAASGFTFSDYYMSWIRQAPGKGLEWVSYISSSGSTIYYADSVKGRFTISRDNAKNSLYLQMNSLRAEDTAVYYCARDEYNSGWYVLFDYWGQGTLVTVSSASTKGPSVFPLAPQVQLQESGPGLVKPSQTLSLTCTVSGYSISSDFAWNWIRQPPGKGLEWMGYISYSGNTRYQPSLKSRITISRDTSKNQFFLKLNSVTAADTATYYCVTAGRGFPYWGQGTLVTVSS VL: DIQMTQSPSSVSASVGDRVTITCRASQGISSWLAWYQQKPGKAPNLLIYEASSLQSGVPSRFGGSGSGTDFTLTISSLQPEDFATYYCQQANGFPWTFGQGTKVEIKRTVAAPDIQMTQSPSSMSVSVGDRVTITCHSSQDINSNIGWLQQKPGKSFKGLIYHGTNLDDGVPSRFSGSGSGTDYTLTISSLQPEDFATYYCVQYAQFPWTFGGGTKLEIKR | – | – | 96.4 nM | 0.14 nM |
| DVD838 (bispecific antibody, DVD-Ig; HC S, LC L; variable parts only) VH: QVQLVESGGGLVKPGGSLRLSCAASGFTFSDYYMSWIRQAPGKGLEWVSYISSSGSTIYYADSVKGRFTISRDNAKNSLYLQMNSLRAEDTAVYYCARDEYNSGWYVLFDYWGQGTLVTVSSASTKGPQVQLQESGPGLVKPSQTLSLTCTVSGYSISSDFAWNWIRQPPGKGLEWMGYISYSGNTRYQPSLKSRITISRDTSKNQFFLKLNSVTAADTATYYCVTAGRGFPYWGQGTLVTVSS VL: DIQMTQSPSSVSASVGDRVTITCRASQGISSWLAWYQQKPGKAPNLLIYEASSLQSGVPSRFGGSGSGTDFTLTISSLQPEDFATYYCQQANGFPWTFGQGTKVEIKRTVAAPSVFIFPPDIQMTQSPSSMSVSVGDRVTITCHSSQDINSNIGWLQQKPGKSFKGLIYHGTNLDDGVPSRFSGSGSGTDYTLTISSLQPEDFATYYCVQYAQFPWTFGGGTKLEIKR | – | – | 57.7 nM | 0.19 nM |

Further lines, results first:

| EC50 (HGF [1]) | EC50 (EGFR [2]) | EC50 (EGFR [3]) | EC50 (HGF [4]) | Binder |
| --- | --- | --- | --- | --- |
| 159 nM | 3.77 nM | – | – | DVD335 (bispecific antibody, DVD-Ig; HC S, LC S; variable parts only) VH: QVQLQESGPGLVKPSQTLSLTCTVSGYSISSDFAWNWIRQPPGKGLEWMGYISYSGNTRYQPSLKSRITISRDTSKNQFFLKLNSVTAADTATYYCVTAGRGFPYWGQGTLVTVSSASTKGPQVQLVESGGGLVKPGGSLRLSCAASGFTFSDYYMSWIRQAPGKGLEWVSYISSSGSTIYYADSVKGRFTISRDNAKNSLYLQMNSLRAEDTAVYYCARDEYNSGWYVLFDYWGQGTLVTVSS VL: DIQMTQSPSSMSVSVGDRVTITCHSSQDINSNIGWLQQKPGKSFKGLIYHGTNLDDGVPSRFSGSGSGTDYTLTISSLQPEDFATYYCVQYAQFPWTFGGGTKLEIKRTVAAPDIQMTQSPSSVSASVGDRVTITCRASQGISSWLAWYQQKPGKAPNLLIYEASSLQSGVPSRFGGSGSGTDFTLTISSLQPEDFATYYCQQANGFPWTFGQGTKVEIKR |
| 0.96 nM | 5.13 nM | – | – | DVD777 (bispecific antibody, DVD-Ig; HC L, LC L; variable parts only) VH: QVQLQESGPGLVKPSQTLSLTCTVSGYSISSDFAWNWIRQPPGKGLEWMGYISYSGNTRYQPSLKSRITISRDTSKNQFFLKLNSVTAADTATYYCVTAGRGFPYWGQGTLVTVSSASTKGPSVFPLAPQVQLVESGGGLVKPGGSLRLSCAASGFTFSDYYMSWIRQAPGKGLEWVSYISSSGSTIYYADSVKGRFTISRDNAKNSLYLQMNSLRAEDTAVYYCARDEYNSGWYVLFDYWGQGTLVTVSS VL: DIQMTQSPSSMSVSVGDRVTITCHSSQDINSNIGWLQQKPGKSFKGLIYHGTNLDDGVPSRFSGSGSGTDYTLTISSLQPEDFATYYCVQYAQFPWTFGGGTKLEIKRTVAAPSVFIFPPDIQMTQSPSSVSASVGDRVTITCRASQGISSWLAWYQQKPGKAPNLLIYEASSLQSGVPSRFGGSGSGTDFTLTISSLQPEDFATYYCQQANGFPWTFGQGTKVEIKR |
| 1.29 nM | 4.51 nM | – | – | DVD837 (bispecific antibody, DVD-Ig; HC S, LC L; variable parts only) VH: QVQLQESGPGLVKPSQTLSLTCTVSGYSISSDFAWNWIRQPPGKGLEWMGYISYSGNTRYQPSLKSRITISRDTSKNQFFLKLNSVTAADTATYYCVTAGRGFPYWGQGTLVTVSSASTKGPQVQLVESGGGLVKPGGSLRLSCAASGFTFSDYYMSWIRQAPGKGLEWVSYISSSGSTIYYADSVKGRFTISRDNAKNSLYLQMNSLRAEDTAVYYCARDEYNSGWYVLFDYWGQGTLVTVSS VL: DIQMTQSPSSMSVSVGDRVTITCHSSQDINSNIGWLQQKPGKSFKGLIYHGTNLDDGVPSRFSGSGSGTDYTLTISSLQPEDFATYYCVQYAQFPWTFGGGTKLEIKRTVAAPSVFIFPPDIQMTQSPSSVSASVGDRVTITCRASQGISSWLAWYQQKPGKAPNLLIYEASSLQSGVPSRFGGSGSGTDFTLTISSLQPEDFATYYCQQANGFPWTFGQGTKVEIKR |
| – | – | 332 nM | 0.15 nM | DVD336 (bispecific antibody, DVD-Ig; HC S, LC S; variable parts only) VH: QVQLVESGGGLVKPGGSLRLSCAASGFTFSDYYMSWIRQAPGKGLEWVSYISSSGSTIYYADSVKGRFTISRDNAKNSLYLQMNSLRAEDTAVYYCARDEYNSGWYVLFDYWGQGTLVTVSSASTKGPQVQLQESGPGLVKPSQTLSLTCTVSGYSISSDFAWNWIRQPPGKGLEWMGYISYSGNTRYQPSLKSRITISRDTSKNQFFLKLNSVTAADTATYYCVTAGRGFPYWGQGTLVTVSS VL: DIQMTQSPSSVSASVGDRVTITCRASQGISSWLAWYQQKPGKAPNLLIYEASSLQSGVPSRFGGSGSGTDFTLTISSLQPEDFATYYCQQANGFPWTFGQGTKVEIKRTVAAPDIQMTQSPSSMSVSVGDRVTITCHSSQDINSNIGWLQQKPGKSFKGLIYHGTNLDDGVPSRFSGSGSGTDYTLTISSLQPEDFATYYCVQYAQFPWTFGGGTKLEIKR |
